PMC4715182, “Structure of a Chaperone-Usher Pilus Reveals the Molecular Basis of Rod Uncoiling” (Cell, 2016)
Values joined by “and” are separate entries in the source; they are usually repeats but may differ in a detail not shown here. Equal entries are not always repeated.

Legend:
PapA Gln106AzF, P04127 = target: T1, PapA Gln106AzF, P04127; assay: pilus rod formation quantified by Sypro Ruby signal after ultracentrifugation; details: chain shown with the change;; parent: est. 100; read off a plot
T1 chain: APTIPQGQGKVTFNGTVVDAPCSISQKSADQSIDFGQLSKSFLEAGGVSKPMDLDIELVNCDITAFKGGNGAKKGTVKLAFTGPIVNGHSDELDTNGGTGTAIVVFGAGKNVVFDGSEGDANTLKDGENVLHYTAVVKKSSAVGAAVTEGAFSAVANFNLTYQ

PapA Lys50AzF, P04127 = target: T2, PapA Lys50AzF, P04127; assay: as above; details: chain shown with the change;; parent: est. 100; read off a plot
T2 chain: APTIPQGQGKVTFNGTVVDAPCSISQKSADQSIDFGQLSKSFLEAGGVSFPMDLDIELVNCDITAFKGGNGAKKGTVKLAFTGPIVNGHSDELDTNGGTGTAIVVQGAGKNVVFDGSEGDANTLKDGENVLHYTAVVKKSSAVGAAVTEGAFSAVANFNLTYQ

[1] = target: the molecule itself; assay: in vitro rod formation (pelleting by ultracentrifugation, negative stain EM, Sypro Ruby signal); purified PapD:PapA complexes at 50 μM, 20°C, 72 hr; four rounds of ultracentrifugation at 57,000 x g; 20 mM Tris (pH 7.5), 150 mM NaCl
PapA Val143AzF, P04127 = target: T3, PapA Val143AzF, P04127; assay: pilus rod formation quantified by Sypro Ruby signal after ultracentrifugation; details: chain shown with the change;; parent: est. 100; read off a plot
T3 chain: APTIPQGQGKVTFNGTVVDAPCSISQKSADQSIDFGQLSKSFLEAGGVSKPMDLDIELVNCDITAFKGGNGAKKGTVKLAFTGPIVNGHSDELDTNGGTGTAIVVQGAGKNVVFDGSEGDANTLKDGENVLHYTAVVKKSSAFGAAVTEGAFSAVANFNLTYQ

PapA Thr76AzF, P04127 = target: T4, PapA Thr76AzF, P04127; assay: as above; details: chain shown with the change;; parent: est. 100; read off a plot
T4 chain: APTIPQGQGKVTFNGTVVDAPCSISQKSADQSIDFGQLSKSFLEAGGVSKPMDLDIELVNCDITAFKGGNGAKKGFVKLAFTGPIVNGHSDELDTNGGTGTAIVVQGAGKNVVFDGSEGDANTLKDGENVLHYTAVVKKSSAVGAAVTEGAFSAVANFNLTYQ

PapA Val155AzF, P04127 = target: T5, PapA Val155AzF, P04127; assay: as above; details: chain shown with the change;; parent: est. 100; read off a plot
T5 chain: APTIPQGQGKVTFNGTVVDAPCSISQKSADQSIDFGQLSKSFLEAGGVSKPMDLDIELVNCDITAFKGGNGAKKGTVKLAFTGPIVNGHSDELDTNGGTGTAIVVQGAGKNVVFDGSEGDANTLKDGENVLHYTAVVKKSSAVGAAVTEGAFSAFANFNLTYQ

PapA Lys27AzF, P04127 = target: T6, PapA Lys27AzF, P04127; assay: as above; details: chain shown with the change;; parent: est. 100; read off a plot
T6 chain: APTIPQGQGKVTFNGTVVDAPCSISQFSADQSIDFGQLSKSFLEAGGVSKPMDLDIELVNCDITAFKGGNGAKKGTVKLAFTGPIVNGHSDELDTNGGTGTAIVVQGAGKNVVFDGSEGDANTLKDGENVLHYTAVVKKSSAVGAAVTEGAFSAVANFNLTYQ

[2] = target: the molecule itself; assay: SEC; purified PapDHis:PapA left to polymerize at 20°C for 16 hr at 38 μM; Superdex 200 10/300 increase; donor-strand exchange (DSE) products
PapA Val18AzF, P04127 = target: T7, PapA Val18AzF, P04127; assay: pilus rod formation quantified by Sypro Ruby signal after ultracentrifugation; details: chain shown with the change;; parent: est. 100; read off a plot
T7 chain: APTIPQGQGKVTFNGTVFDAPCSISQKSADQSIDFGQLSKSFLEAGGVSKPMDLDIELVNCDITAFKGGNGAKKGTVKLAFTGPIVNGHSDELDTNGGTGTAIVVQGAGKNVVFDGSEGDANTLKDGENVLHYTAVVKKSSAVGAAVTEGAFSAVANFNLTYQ

[3] = target: the molecule itself; assay: SEC-MALS; sample of PapD:PapA Val18AzF; Superdex 200 10/300 increase; molecular weight of each peak

B1: PapA wild-type, P04127 Q106AzF (protein)
chain: APTIPQGQGKVTFNGTVVDAPCSISQKSADQSIDFGQLSKSFLEAGGVSKPMDLDIELVNCDITAFKGGNGAKKGTVKLAFTGPIVNGHSDELDTNGGTGTAIVVFGAGKNVVFDGSEGDANTLKDGENVLHYTAVVKKSSAVGAAVTEGAFSAVANFNLTYQ
PapA Gln106AzF, P04127
  percent of parent (% of wild-type Sypro Ruby signal): 93

B2: PapA wild-type, P04127 K50AzF (protein)
chain: APTIPQGQGKVTFNGTVVDAPCSISQKSADQSIDFGQLSKSFLEAGGVSFPMDLDIELVNCDITAFKGGNGAKKGTVKLAFTGPIVNGHSDELDTNGGTGTAIVVQGAGKNVVFDGSEGDANTLKDGENVLHYTAVVKKSSAVGAAVTEGAFSAVANFNLTYQ
PapA Lys50AzF, P04127
  percent of parent (% of wild-type Sypro Ruby signal): 72

B3: PapA Val143AzF (natural protein)
chain: APTIPQGQGKVTFNGTVVDAPCSISQKSADQSIDFGQLSKSFLEAGGVSKPMDLDIELVNCDITAFKGGNGAKKGTVKLAFTGPIVNGHSDELDTNGGTGTAIVVQGAGKNVVFDGSEGDANTLKDGENVLHYTAVVKKSSAFGAAVTEGAFSAVANFNLTYQ
modifications: p-azido-L-phenylalanine (AzF) at 143
notes: PapA of uropathogenic E. coli with AzF at residue 143 by amber suppression; The new residue is the unnatural amino acid p-azido-L-phenylalanine; written as F with the modification
[1]
  binding result: binds

B4: PapA wild-type, P04127 V143AzF (protein)
chain: APTIPQGQGKVTFNGTVVDAPCSISQKSADQSIDFGQLSKSFLEAGGVSKPMDLDIELVNCDITAFKGGNGAKKGTVKLAFTGPIVNGHSDELDTNGGTGTAIVVQGAGKNVVFDGSEGDANTLKDGENVLHYTAVVKKSSAFGAAVTEGAFSAVANFNLTYQ
PapA Val143AzF, P04127
  percent of parent (% of wild-type Sypro Ruby signal): 94

B5: PapA wild-type, P04127 T76AzF (protein)
chain: APTIPQGQGKVTFNGTVVDAPCSISQKSADQSIDFGQLSKSFLEAGGVSKPMDLDIELVNCDITAFKGGNGAKKGFVKLAFTGPIVNGHSDELDTNGGTGTAIVVQGAGKNVVFDGSEGDANTLKDGENVLHYTAVVKKSSAVGAAVTEGAFSAVANFNLTYQ
PapA Thr76AzF, P04127
  percent of parent (% of wild-type Sypro Ruby signal): 96

B6: PapA wild-type, P04127 V155AzF (protein)
chain: APTIPQGQGKVTFNGTVVDAPCSISQKSADQSIDFGQLSKSFLEAGGVSKPMDLDIELVNCDITAFKGGNGAKKGTVKLAFTGPIVNGHSDELDTNGGTGTAIVVQGAGKNVVFDGSEGDANTLKDGENVLHYTAVVKKSSAVGAAVTEGAFSAFANFNLTYQ
PapA Val155AzF, P04127
  percent of parent (% of wild-type Sypro Ruby signal): 5

B7: PapA Lys27AzF (natural protein)
chain: APTIPQGQGKVTFNGTVVDAPCSISQFSADQSIDFGQLSKSFLEAGGVSKPMDLDIELVNCDITAFKGGNGAKKGTVKLAFTGPIVNGHSDELDTNGGTGTAIVVQGAGKNVVFDGSEGDANTLKDGENVLHYTAVVKKSSAVGAAVTEGAFSAVANFNLTYQ
modifications: p-azido-L-phenylalanine (AzF) at 27
notes: PapA of uropathogenic E. coli with AzF at residue 27 by amber suppression; The new residue is the unnatural amino acid p-azido-L-phenylalanine; written as F with the modification
[1]
  binding result: binds

B8: PapA Lys50AzF (natural protein)
chain: APTIPQGQGKVTFNGTVVDAPCSISQKSADQSIDFGQLSKSFLEAGGVSFPMDLDIELVNCDITAFKGGNGAKKGTVKLAFTGPIVNGHSDELDTNGGTGTAIVVQGAGKNVVFDGSEGDANTLKDGENVLHYTAVVKKSSAVGAAVTEGAFSAVANFNLTYQ
modifications: p-azido-L-phenylalanine (AzF) at 50
notes: PapA of uropathogenic E. coli with AzF at residue 50 by amber suppression; The new residue is the unnatural amino acid p-azido-L-phenylalanine; written as F with the modification
[1]
  binding result: binds

B9: PapA Thr76AzF (natural protein)
chain: APTIPQGQGKVTFNGTVVDAPCSISQKSADQSIDFGQLSKSFLEAGGVSKPMDLDIELVNCDITAFKGGNGAKKGFVKLAFTGPIVNGHSDELDTNGGTGTAIVVQGAGKNVVFDGSEGDANTLKDGENVLHYTAVVKKSSAVGAAVTEGAFSAVANFNLTYQ
modifications: p-azido-L-phenylalanine (AzF) at 76
notes: PapA of uropathogenic E. coli with AzF at residue 76 by amber suppression; The new residue is the unnatural amino acid p-azido-L-phenylalanine; written as F with the modification
[1]
  binding result: binds

B10: PapA wild-type, P04127 K27AzF (protein)
chain: APTIPQGQGKVTFNGTVVDAPCSISQFSADQSIDFGQLSKSFLEAGGVSKPMDLDIELVNCDITAFKGGNGAKKGTVKLAFTGPIVNGHSDELDTNGGTGTAIVVQGAGKNVVFDGSEGDANTLKDGENVLHYTAVVKKSSAVGAAVTEGAFSAVANFNLTYQ
PapA Lys27AzF, P04127
  percent of parent (% of wild-type Sypro Ruby signal): 93

B11: PapA Gln106AzF (natural protein)
chain: APTIPQGQGKVTFNGTVVDAPCSISQKSADQSIDFGQLSKSFLEAGGVSKPMDLDIELVNCDITAFKGGNGAKKGTVKLAFTGPIVNGHSDELDTNGGTGTAIVVFGAGKNVVFDGSEGDANTLKDGENVLHYTAVVKKSSAVGAAVTEGAFSAVANFNLTYQ
modifications: p-azido-L-phenylalanine (AzF) at 106
notes: PapA of uropathogenic E. coli with AzF at residue 106 by amber suppression; The new residue is the unnatural amino acid p-azido-L-phenylalanine; written as F with the modification
[1]
  binding result: binds

B12: PapA wild-type (natural protein)
chain: APTIPQGQGKVTFNGTVVDAPCSISQKSADQSIDFGQLSKSFLEAGGVSKPMDLDIELVNCDITAFKGGNGAKKGTVKLAFTGPIVNGHSDELDTNGGTGTAIVVQGAGKNVVFDGSEGDANTLKDGENVLHYTAVVKKSSAVGAAVTEGAFSAVANFNLTYQ
notes: PapA, major P pilus rod subunit of uropathogenic E. coli; Ala1 is the very N terminus in the model; also called major pilus subunit PapA; P pilus rod subunit
[2]
  binding result: binds

B13: PapA wild-type, P04127 V18AzF (protein)
chain: APTIPQGQGKVTFNGTVFDAPCSISQKSADQSIDFGQLSKSFLEAGGVSKPMDLDIELVNCDITAFKGGNGAKKGTVKLAFTGPIVNGHSDELDTNGGTGTAIVVQGAGKNVVFDGSEGDANTLKDGENVLHYTAVVKKSSAVGAAVTEGAFSAVANFNLTYQ
PapA Val18AzF, P04127
  percent of parent (% of wild-type Sypro Ruby signal): 5

B14: PapA Val155AzF (natural protein)
chain: APTIPQGQGKVTFNGTVVDAPCSISQKSADQSIDFGQLSKSFLEAGGVSKPMDLDIELVNCDITAFKGGNGAKKGTVKLAFTGPIVNGHSDELDTNGGTGTAIVVQGAGKNVVFDGSEGDANTLKDGENVLHYTAVVKKSSAVGAAVTEGAFSAFANFNLTYQ
modifications: p-azido-L-phenylalanine (AzF) at 155
notes: PapA of uropathogenic E. coli with AzF at residue 155 by amber suppression; The new residue is the unnatural amino acid p-azido-L-phenylalanine; written as F with the modification
[2]
  binding result: binds

B15: PapA Asn96AzF (natural protein)
chain: APTIPQGQGKVTFNGTVVDAPCSISQKSADQSIDFGQLSKSFLEAGGVSKPMDLDIELVNCDITAFKGGNGAKKGTVKLAFTGPIVNGHSDELDTFGGTGTAIVVQGAGKNVVFDGSEGDANTLKDGENVLHYTAVVKKSSAVGAAVTEGAFSAVANFNLTYQ
modifications: p-azido-L-phenylalanine (AzF) at 96
notes: PapA of uropathogenic E. coli with AzF at residue 96 by amber suppression; The new residue is the unnatural amino acid p-azido-L-phenylalanine; written as F with the modification
[2]
  binding result: binds

B16: PapA Val18AzF (natural protein)
chain: APTIPQGQGKVTFNGTVFDAPCSISQKSADQSIDFGQLSKSFLEAGGVSKPMDLDIELVNCDITAFKGGNGAKKGTVKLAFTGPIVNGHSDELDTNGGTGTAIVVQGAGKNVVFDGSEGDANTLKDGENVLHYTAVVKKSSAVGAAVTEGAFSAVANFNLTYQ
modifications: p-azido-L-phenylalanine (AzF) at 18
notes: PapA of uropathogenic E. coli with AzF at residue 18 by amber suppression; The new residue is the unnatural amino acid p-azido-L-phenylalanine; written as F with the modification; also called Val18 mutant
[3]
  stoichiometry N: 2 and 3

B17: PapA Asp126AzF (natural protein)
chain: APTIPQGQGKVTFNGTVVDAPCSISQKSADQSIDFGQLSKSFLEAGGVSKPMDLDIELVNCDITAFKGGNGAKKGTVKLAFTGPIVNGHSDELDTNGGTGTAIVVQGAGKNVVFDGSEGDANTLKFGENVLHYTAVVKKSSAVGAAVTEGAFSAVANFNLTYQ
modifications: p-azido-L-phenylalanine (AzF) at 126
notes: PapA of uropathogenic E. coli with AzF at residue 126 by amber suppression; The new residue is the unnatural amino acid p-azido-L-phenylalanine; written as F with the modification
[2]
  binding result: binds
